Reference: US20260132208A1 (DOMAIN THERAPEUTICS, published 2026)

Tests used:
human CCR8 = human CCR8 (human, UniProt P51685 1-355); experiment: cell-based or functional assay
pm2 = target: T1, pm2 (sulfated tyrosine(s) among Y15, Y16, Y17; which ones is not told (the underlining of Table 1 is lost in the text)); experiment: ELISA on coated peptide [cont.]
T1 construct: also called sulfated CCR8 N-terminal peptide pm2
Summary of the method: (§1)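 Each antibody is tested at 1 μg/mL plus a 1/10 dilution against peptide coated at 500 ng/ml in carbonate/bicarbonate buffer. Binding runs 90 min at room temperature. After washing, TMB substrate is added for 15 min and OD gives the signal.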

pwt1 = target: T2, pwt1 (none (unmodified peptide)); experiment: ELISA on coated peptide [cont.]
T2 construct: also called unmodified CCR8 N-terminal peptide
T2 sequence (peptide, as listed by the source): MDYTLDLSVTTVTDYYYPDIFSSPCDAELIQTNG
Summary of the method: as §1

T1 sequence (peptide, as listed by the source): as above

| Binder | ADCC % max lysis, HUT78 targets, NK donor 3 (human CCR8) | ADCC % max lysis, HUT78 targets, NK donor 4 (human CCR8) | ADCC EC50, HUT78 targets, NK donor 3 (human CCR8) | ADCC EC50, HUT78 targets, NK donor 4 (human CCR8) | binding result (pm2) | binding result (pwt1) |
| --- | --- | --- | --- | --- | --- | --- |
| anti-CCR8 mAb 1-25 (antibody, human IgG1, kappa, V domains shown, Humanized mAb, human IgG1 / kappa) VH: QVQLVESGGGVVQPGRSLRLSCAASGFTFSNYRMHWVRQAPGKGLEWIAVIKVKSDNYGANYADSVKGRFTISRDNSKNTLYLQMNSLRAEDTAVYYCSSPTYPGSSGFAYWGQGTLVTVSS VL: DIQMTQSPSSLSASVGDRVTITCRASQDISNYLNWYQQKPDGTVKLLIYYTSRLHTGVPSRFSGSGSGTDYTLTISNLQQEDIATYFCQQGNKFPPTFGGGTKVEINR | 16% | 19% | 0.349 nM | 1.91 nM |  |  |
| anti-CCR8 mAb 1-20 (antibody, human IgG1, kappa, Humanized mAb, human IgG1 / kappa) heavy: not shown light: DIVMTQAAPSLSVTPGESASISCTSSKSLLHSNGNTYLYWFLQKPGQSPQLLIYRMSNLASGVPDRFSGSGSGTAFTLKISRVEAEDVGVYYCMQHREYPFTFGSGTKLEIKRTVAAPSVFIFPPSDEQLKSGTASVVCLLNNFYPREAKVQWKVDNALQSGNSQESVTEQDSKDSTYSLSSTLTLSKADYEKHKVYACEVTHQGLSSPVTKSFNRGEC |  |  |  |  | binds | binds |
